Our source for the Observed mass (Da) after in vitro decarboxylation with MutD, 1 hr (MALDI-TOF) and Observed mass (Da) after in vitro decarboxylation with MutD, 10 hr (MALDI-TOF) values is patent publication US20180118791.

One data set relates to T1, SFNSYTC.
T1 sequence: SFNSYTC

The test system of data set [1] is T2, mutacin 1140 C-terminal carboxyl analog (mu1140-COOH).
T2 sequence: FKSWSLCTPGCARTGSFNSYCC

The substance MutD showed an Observed mass (Da) after in vitro decarboxylation with MutD, 1 hr (MALDI-TOF) with SFNSYTC of 798 Da. For the same substance, in data set [1], the Observed mass (Da) after in vitro decarboxylation with MutD, 1 hr (MALDI-TOF) turned out to be 2310 Da and the Observed mass (Da) after in vitro decarboxylation with MutD, 10 hr (MALDI-TOF) was determined as 2310 Da.
